Data reported in patent US20260053904A1 (BIOATLA, published 2026).

Assays:
[1] = molecular target: T1, recombinant human EpCAM extracellular domain (human, UniProt P16422 24-265); test: direct binding ELISA, human EpCAM, pH 6.0 (table prints IC50, the text paragraph 376 says EC50)
T1 construct: extracellular domain; Plate-coated antigen of the ELISAs; also called human EpCAM ECD; recombinant EpCAM antigen
T1 sequence (looked up): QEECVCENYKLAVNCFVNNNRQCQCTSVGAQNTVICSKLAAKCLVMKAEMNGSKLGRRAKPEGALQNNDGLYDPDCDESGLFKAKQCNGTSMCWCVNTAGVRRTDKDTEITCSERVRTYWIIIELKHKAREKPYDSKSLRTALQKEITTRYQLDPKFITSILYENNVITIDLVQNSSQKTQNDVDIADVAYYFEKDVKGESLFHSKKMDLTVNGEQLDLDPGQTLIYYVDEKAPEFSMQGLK

[2] = molecular target: T1, recombinant human EpCAM extracellular …; test: direct binding ELISA, human EpCAM; ratio of the printed IC50 at pH 7.4 to pH 6.0
[3] = molecular target: T1, recombinant human EpCAM extracellular …; test: direct binding ELISA, human EpCAM, pH 7.4 (table prints IC50, the text paragraph 376 says EC50)
[4] = molecular target: T2, cyno EpCAM (recombinant, ELISA antigen) (cynomolgus monkey); test: direct binding ELISA, cyno EpCAM; ratio of the printed IC50 at pH 7.4 to pH 6.0
T2 construct: extracellular domain; also called cynomolgus EpCAM extracellular domain

[5] = molecular target: T2, cyno EpCAM (recombinant, ELISA antigen); test: direct binding ELISA, cyno EpCAM, pH 6.0 (printed as IC50)
[6] = molecular target: T2, cyno EpCAM (recombinant, ELISA antigen); test: direct binding ELISA, cyno EpCAM, pH 7.4 (printed as IC50)

B1: BA-105-06-02 (antibody, V domains shown)
VH: EVQLVQSGAEVKKPGATVKISCKVSGYTFTSYWMHWIRQPPGKGLEWIGYIRPSTGYTEYNQKFKDRFTISRDNSKNTLYLQMNSLRAEDTAVYYCGRGDNWVGFANWGQGTLVTVSS
VL: EIVLTQSPDFQSVTPKEKVTITCSASSSISYMHWYQQKPGKAPKLLIYSTSSLASGVPDRFSGSGSGTDFTLKISRVEAEDVGVYYCHQWSTYETFGQGTKVEIK
notes: Humanized
IC50 [1]: 0.105 µg/mL
ratio (pH7.4/pH6.0) [2]: 2.5
IC50 [3]: 0.262 µg/mL
ratio (pH7.4/pH6.0) [4]: 4.44
IC50 [5]: 0.152 µg/mL
IC50 [6]: 0.673 µg/mL
